Experimental data from patent US20260207725A1.

Target: wild-type Pfs48/45 D3 (6C domain), glycosylated (Plasmodium falciparum) (UniProt Q8I6T1)
Chain of UniProt Q8I6T1 (Q8I6T1 291-428, tags left off): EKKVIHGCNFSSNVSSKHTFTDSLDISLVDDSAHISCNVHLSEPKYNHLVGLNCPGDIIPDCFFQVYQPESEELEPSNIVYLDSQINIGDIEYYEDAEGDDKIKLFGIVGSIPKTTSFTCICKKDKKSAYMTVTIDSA

TB31F neutralizing monoclonal antibody (humanized version of mAb 85RF45.1) (from UniProt P0DOY2 1-106)
Kd: 2.5 nM | koff: 0.00082 s⁻¹ | kon: 350000 M⁻¹ s⁻¹
